Reference: patent US20220281966A1 (Amgen, published 2022)

T1: Human IL-13-Mouse IL-13 Helix D chimera (human with mouse Helix D)
T1 construct: also called Mo HelixD
T1 chain: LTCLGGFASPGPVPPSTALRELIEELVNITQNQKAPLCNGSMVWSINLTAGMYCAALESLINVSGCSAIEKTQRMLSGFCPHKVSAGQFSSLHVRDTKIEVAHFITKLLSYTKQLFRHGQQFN

T2: mouse IL-13 (mouse, UniProt P20109 21-131, limits assumed)
T2 sequence (looked up): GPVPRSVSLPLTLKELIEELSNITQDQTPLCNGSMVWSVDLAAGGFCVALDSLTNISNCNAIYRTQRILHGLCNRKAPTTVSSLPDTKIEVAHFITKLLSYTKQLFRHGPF


Legend:
[1] = biological target: T1, Human IL-13-Mouse IL-13 Helix D chimera; test: ELISA on secreted chimeric IL-13
[2] = biological target: T3, IL-13 (human IL-13, preparation not specified) (human, UniProt P35225 35-146, limits assumed); test: cell-based or functional assay
T3 sequence (P35225 35-146 limits assumed): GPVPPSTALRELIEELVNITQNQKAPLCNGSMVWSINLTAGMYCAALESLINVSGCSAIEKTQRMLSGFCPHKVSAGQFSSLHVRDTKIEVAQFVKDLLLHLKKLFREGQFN

[3] = biological target: T4, Recombinant Human IL-13 (R&D 213-IL-005) (human, UniProt P35225 35-146); test: Biacore 2000, mAb captured on goat anti-human surface, IL-13 (R&D) injected, 1:1 fit; first run
T4 sequence (P35225 35-146 limits assumed): as above

mouse IL-13 = biological target: T2, mouse IL-13; test: ELISA, epitope mapping with chimeras
[4] = biological target: T4, Recombinant Human IL-13 (R&D 213-IL-005); test: Biacore 2000, mAb captured on goat anti-human surface, IL-13 (R&D) injected, 1:1 fit; second run
native human IL-13 [5] = biological target: T5, native human IL-13 (human, UniProt P35225 25-146); test: KinExA, Kinetic inject method (KD repeated from Table 10)
T5 construct: mature; Secreted by stimulated PBMCs; also called hIL-13 (KinExA)

[6] = biological target: T6, Human IL-13-rabbit Fc fusion protein (human); test: ELISA on plates coated with IL-13RbFc, antibody without soluble competitor, detection rabbit anti Hu IgG Fc HRP
T6 construct: also called IL-13-RbFc; IL-13RbFc
T6 sequence (chain, as listed by the source limits assumed): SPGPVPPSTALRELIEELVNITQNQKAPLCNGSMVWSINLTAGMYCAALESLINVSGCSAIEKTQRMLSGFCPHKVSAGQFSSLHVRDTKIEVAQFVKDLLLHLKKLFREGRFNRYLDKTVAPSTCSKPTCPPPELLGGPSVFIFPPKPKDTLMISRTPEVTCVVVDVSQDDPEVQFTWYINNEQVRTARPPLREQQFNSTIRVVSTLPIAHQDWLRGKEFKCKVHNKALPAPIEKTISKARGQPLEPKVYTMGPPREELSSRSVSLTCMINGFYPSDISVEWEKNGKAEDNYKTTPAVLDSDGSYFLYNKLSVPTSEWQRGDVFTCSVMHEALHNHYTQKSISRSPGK

[7] = biological target: T4, Recombinant Human IL-13 (R&D 213-IL-005); test: Biacore 2000, mAb captured on goat anti-human surface, IL-13 (R&D) injected, 1:1 fit
native human IL-13 [8] = biological target: T5, native human IL-13; test: KinExA equilibrium in solution
native human IL-13 [9] = biological target: T5, native human IL-13; test: KinExA, Kinetic inject method; calculated from kon and KD
[10] = biological target: T7, native macaque monkey IL-13 (macaque monkey, UniProt Q0PW92 19-132); test: KinExA equilibrium in solution
T7 construct: also called native macaque IL-13
T7 sequence (Q0PW92 entry or part of it limits assumed): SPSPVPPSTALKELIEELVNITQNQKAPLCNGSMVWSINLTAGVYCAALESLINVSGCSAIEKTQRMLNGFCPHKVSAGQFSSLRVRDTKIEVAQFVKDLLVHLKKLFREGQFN

native human IL-13 [11] = biological target: T5, native human IL-13; test: KinExA, Kinetic inject method
native human IL-13 [12] = biological target: T5, native human IL-13; test: KinExA, Kinetic Direct method (KD repeated from Table 10)
native human IL-13 [13] = biological target: T5, native human IL-13; test: KinExA, Kinetic Direct method
native human IL-13 [14] = biological target: T5, native human IL-13; test: KinExA, Kinetic Direct method; calculated from kon and KD
[15] = biological target: T3, IL-13 (human IL-13, preparation not …); test: cell-based or functional assay; remark: listed apart in the source

IC50, Eotaxin-1 assay, Average [2]	IC50, Eotaxin-1 assay, n = 1 [2]	IC50, Eotaxin-1 assay, n = 2 [2]	IC50, Eotaxin-1 assay, n = 3 [2]	binding result (mouse IL-13)	Kd [7]	koff [7]	kon [7]	Binder	other results
54 pM	38 pM	69 pM	53 pM	no binding	–	–	–	antibody 693 (antibody, V domains shown, also called sc693) VH: QVQLQESGPGLVKPSETLSLTCSVSGGSISSYYWSWIRQPAGKGLEWIGRIYMTGRTNYNSSLKSRVTMSIDTSKNQLSLKLSFMTAADTAVYYCARESGSSYSYDYWGQGTLVTVSS VL: SYVLTQPPSVSVAPGQTARITCGGNNIGSKGVHWYQQKPGQAPVLVVYDDSDRPSGIPERFSGSNSGNTATLTISRVEAGDEADYYCQVWVSSSDHHVVFGGGTKLTVV	binding result [1]: no binding; Kd [3]: 189 pM; koff [3]: 0.00038 s⁻¹; kon [3]: 2e+06 M⁻¹ s⁻¹; Kd [4]: 109 pM; koff [4]: 0.00027 s⁻¹; kon [4]: 2.5e+06 M⁻¹ s⁻¹
101 pM	99 pM	123 pM	80 pM	–	–	–	–	antibody 353 (antibody, V domains shown) VH: QVQLQESGPGLVKPSETLSLTCTVSGGSISTYYWSWIRQPPGKGLEWIGYIYYSGSTNYNPSLKSRVTISVDTSKNQFSLKLSSVTAADTAVYYCARDGGHYWDDAFDIWGQGTMVTVSS VL: DIQMTQSPSSLSASVGDRVTITCRASQGIRNDLDWYQQKPGKAPKRLIYDASSLQSGVPSRFSGSGSGTEFTLTISSLQPEDFATYYCLQHDSYPFTFGPGTKVDIK	–
176 pM	223 pM	144 pM	160 pM	no binding	–	–	–	antibody 785 (antibody, V domains shown, lambda light chain) VH: not shown VL: SYVLTQPPSVSVAPGQTARITCGGNNIGNKIVHWYQQKPGQAPVLVVYDDSDRPSGIPERFSGSNSGNTATLTISRVEAGDEADYYCQVWDSSSDHVVFGGGTKLTVL	binding result [1]: no binding
245 pM	213 pM	304 pM	217 pM	–	–	–	–	antibody 11.18.3 (antibody, V domains shown) VH: QVQLVESGGGVVQPGRSLRLSCVASGFTFSSYDMHWVRQAPGKGLEWVAVIWYDGSNKYYADSVQGRFTISRDNSKNTLYLQMNSLRAEDTAVYYCTSEDSSGWYDGWFDPWGQGTLVTVSS VL: DIQMTQSPSSLSASVGDRVTITCRASQGISNYLAWYQQKPGKVPKVLIYAASTLQSGVPSRFSGSGSGTDFTLTISSLQPEDVATYYCQKYNSAPFTFGPGTKVDIK	–
36 pM	31 pM	40 pM	35 pM	no binding	52 pM	0.00025 s⁻¹	4.9e+06 M⁻¹ s⁻¹	antibody 623 (antibody, V domains shown) VH: EVQLVESGGGLVKPGGSLRLSCAASGFTFSNAWMSWVRQAPGKGLEWVGRIRSEIDGGTTNYAAPVKGRFTISRDDSKNTLYLQMNSLKTEDTAVYYCATDQVGAYYGDYYGMDVWGQGTLVTVSS VL: SYELTQPPSVSVSPGQTARITCSGDALPEKYAYWYQQKSGQAPVLVIYEDSKRPSGIPERFSGSSSGTMATLTISGAQVEDEADYYCHSTDSSGNHGVFGGGTKLTVL	Kd (native human IL-13 [5]): 24 pM; binding result [6]: binds; Kd (native human IL-13 [8]): 24 pM; koff (native human IL-13 [9]): 0.00036 s⁻¹; Kd [10]: 37 pM; kon (native human IL-13 [11]): 1.5e+07 M⁻¹ s⁻¹; Kd (native human IL-13 [12]): 24 pM; kon (native human IL-13 [13]): 1.1e+07 M⁻¹ s⁻¹; koff (native human IL-13 [14]): 0.00027 s⁻¹
66 pM	80 pM	53 pM	–	no binding	172 pM	0.00051 s⁻¹	3e+06 M⁻¹ s⁻¹	antibody 602 (antibody, V domains shown, also called mAb 602) VH: EVQLVESGGGLVKPGGSLRLSCAASGFTFSNAWMSWVRQAPGKGLEWVGRIRSKIDGGTINYAAPVKGRFTISRDDSKNTLYLQMNSLKTEDTAVYYCATDQVGAYYGDYYGMDVWGQGTLVTVSS VL: SYELTQPPSVSVSPGQTARITCSGDALPEKYAYWYQQKSGQAPVLVIYEDTKRPSGIPERFSGSSSGTMATLTISGAQVEDEADYYCYSTDSSGNHGVFGGGTKLTVL	–
35 pM	44 pM	28 pM	33 pM	no binding	66 pM	0.00029 s⁻¹	4.4e+06 M⁻¹ s⁻¹	antibody 643 (antibody, V domains shown, also called Ab 643; mAb 643) VH: EVQLVESGGGLVKPGGSLRLSCAASGFTFSNAWMSWVRQAPGKGLEWVGRIRSEIDGGTTNYAAPVKGRFTISRDDSKNTLYLQMNSLRTEDTAVYYCATDQVGAYYGDYYGMDVWGQGTLVTVSS VL: SYELTQPPSVSVSPGQTARITCSGDALPEKYAYWYQQKSGQAPVLVIYEDSKRPSGIPERFSGSSSGTMATLTISGAQVEDEADYYCHSTDSSGNHGVFGGGTKLTVL	Kd (native human IL-13 [8]): 13 pM; IC50 (read off the curve) [15]: ~30 pM
